From patent US20220372155A1 (LYVGEN BIOPHARMA, published 2022)

What follows are binders tested against T1, human CD40 expressed on CHO cells (human, UniProt P25942 21-277) (assay: FACS, CHO cells).
T1 construct: whole, on cells; also used for the reporter cells over-expressing human CD40; also called cellular CD40; CHO-CD40 cells
T1 sequence (P25942 21-277): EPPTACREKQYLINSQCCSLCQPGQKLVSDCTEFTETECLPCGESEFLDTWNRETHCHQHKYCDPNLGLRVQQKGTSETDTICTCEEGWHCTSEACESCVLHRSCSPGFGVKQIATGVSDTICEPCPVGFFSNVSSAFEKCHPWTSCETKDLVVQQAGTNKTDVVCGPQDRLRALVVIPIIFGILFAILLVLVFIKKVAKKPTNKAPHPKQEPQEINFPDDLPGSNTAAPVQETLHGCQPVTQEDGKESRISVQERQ

Binder	binding result
Ly411 (bispecific antibody, human IgG1, kappa, Ly311 HC (IgG1 mutated Fc) + Ly311 LC-TM559 scFv VL-VH) heavy: EVQLVESGGGVVQPGRSLRLSCSASGFDFTTYWMSWVRQAPGKGLEWIGEIHPDSSTINYAPSLKDRFTISRDNAKNTLFLQMDSLRPEDTGVYFCASLYFGFPWFAYWGQGTPVTVSSASTKGPSVFPLAPSSKSTSGGTAALGCLVKDYFPEPVTVSWNSGALTSGVHTFPAVLQSSGLYSLSSVVTVPSSSLGTQTYICNVNHKPSNTKVDKKVEPKSCDKTHTCPPCPAPELLGPSVFLFPPKPKDTLMISRTPEVTCVVVDVSHEDPEVKFNWYVDGVEVHNAKTKPREEQYNSTYRVVSVLTVLHQDWLNGKEYKCKVSNKALPAPIEKTISKAKGQPREPQVYTLPPSREEMTKNQVSLTCLVKGFYPSDIAVEWESNGQPENNYKTTPPVLDSDGSFFLYSKLTVDKSRWQQGNVFSCSVMHEALHNHYTQKSLSLSPGK light: DIQLTQSPSSLSASVGDRVTITCKASQDVGTSVAWYQQKPGKAPKLLIYWTSTRHTGVPSRFSGSGSGTDFTFTISSLQPEDIATYYCQQYSLYRSFGQGTKVEIKRTVAAPSVFIFPPSDEQLKSGTASVVCLLNNFYPREAKVQWKVDNALQSGNSQESVTEQDSKDSTYSLSSTLTLSKADYEKHKVYACEVTHQGLSSPVTKSFNRGECGGGGSGGGGSGGGGSGGGGSDIQMTQSPSSLSASVGDRVTITCLASEDISNDLAWYQQKPGKAPKLLIYFVDRLLDGVPSRFSGSGSGTDFTLTISSLQPEDFATYYCQQSYKYPPTFGQGTKLEIKGGGGSGGGGSGGGGSGGGGSEVQLVESGGGLVQPGGSLRLSCAASGFTFTNYGLHWVRQAPGKGLEWVSSISPSGGVTYYRDSVKGRFTISRDNSKNTLYLQMNSLRAEDTAVYYCAKPFLGWGGANWIAHWGQGTLVTVSS	binds
Ly412 (bispecific antibody, human IgG1, kappa, Ly311 HC (IgG1 mutated Fc) + Ly311 LC-TM559 scFv VH-VL) heavy: EVQLVESGGGVVQPGRSLRLSCSASGFDFTTYWMSWVRQAPGKGLEWIGEIHPDSSTINYAPSLKDRFTISRDNAKNTLFLQMDSLRPEDTGVYFCASLYFGFPWFAYWGQGTPVTVSSASTKGPSVFPLAPSSKSTSGGTAALGCLVKDYFPEPVTVSWNSGALTSGVHTFPAVLQSSGLYSLSSVVTVPSSSLGTQTYICNVNHKPSNTKVDKKVEPKSCDKTHTCPPCPAPELLGPSVFLFPPKPKDTLMISRTPEVTCVVVDVSHEDPEVKFNWYVDGVEVHNAKTKPREEQYNSTYRVVSVLTVLHQDWLNGKEYKCKVSNKALPAPIEKTISKAKGQPREPQVYTLPPSREEMTKNQVSLTCLVKGFYPSDIAVEWESNGQPENNYKTTPPVLDSDGSFFLYSKLTVDKSRWQQGNVFSCSVMHEALHNHYTQKSLSLSPGK light: DIQLTQSPSSLSASVGDRVTITCKASQDVGTSVAWYQQKPGKAPKLLIYWTSTRHTGVPSRFSGSGSGTDFTFTISSLQPEDIATYYCQQYSLYRSFGQGTKVEIKRTVAAPSVFIFPPSDEQLKSGTASVVCLLNNFYPREAKVQWKVDNALQSGNSQESVTEQDSKDSTYSLSSTLTLSKADYEKHKVYACEVTHQGLSSPVTKSFNRGECGGGGSGGGGSGGGGSGGGGSEVQLVESGGGLVQPGGSLRLSCAASGFTFTNYGLHWVRQAPGKGLEWVSSISPSGGVTYYRDSVKGRFTISRDNSKNTLYLQMNSLRAEDTAVYYCAKPFLGWGGANWIAHWGQGTLVTVSSGGGGSGGGGSGGGGSGGGGSDIQMTQSPSSLSASVGDRVTITCLASEDISNDLAWYQQKPGKAPKLLIYFVDRLLDGVPSRFSGSGSGTDFTLTISSLQPEDFATYYCQQSYKYPPTFGQGTKLEIK	binds
Ly409 (bispecific antibody, human IgG1, kappa, Ly311 HC (IgG1 mutated Fc)-TM559 scFv VL-VH + Ly311 LC) heavy: EVQLVESGGGVVQPGRSLRLSCSASGFDFTTYWMSWVRQAPGKGLEWIGEIHPDSSTINYAPSLKDRFTISRDNAKNTLFLQMDSLRPEDTGVYFCASLYFGFPWFAYWGQGTPVTVSSASTKGPSVFPLAPSSKSTSGGTAALGCLVKDYFPEPVTVSWNSGALTSGVHTFPAVLQSSGLYSLSSVVTVPSSSLGTQTYICNVNHKPSNTKVDKKVEPKSCDKTHTCPPCPAPELLGPSVFLFPPKPKDTLMISRTPEVTCVVVDVSHEDPEVKFNWYVDGVEVHNAKTKPREEQYNSTYRVVSVLTVLHQDWLNGKEYKCKVSNKALPAPIEKTISKAKGQPREPQVYTLPPSREEMTKNQVSLTCLVKGFYPSDIAVEWESNGQPENNYKTTPPVLDSDGSFFLYSKLTVDKSRWQQGNVFSCSVMHEALHNHYTQKSLSLSPGGGGGSGGGGSGGGGSGGGGSDIQMTQSPSSLSASVGDRVTITCLASEDISNDLAWYQQKPGKAPKLLIYFVDRLLDGVPSRFSGSGSGTDFTLTISSLQPEDFATYYCQQSYKYPPTFGQGTKLEIKGGGGSGGGGSGGGGSGGGGSEVQLVESGGGLVQPGGSLRLSCAASGFTFTNYGLHWVRQAPGKGLEWVSSISPSGGVTYYRDSVKGRFTISRDNSKNTLYLQMNSLRAEDTAVYYCAKPFLGWGGANWIAHWGQGTLVTVSS light: DIQLTQSPSSLSASVGDRVTITCKASQDVGTSVAWYQQKPGKAPKLLIYWTSTRHTGVPSRFSGSGSGTDFTFTISSLQPEDIATYYCQQYSLYRSFGQGTKVEIKRTVAAPSVFIFPPSDEQLKSGTASVVCLLNNFYPREAKVQWKVDNALQSGNSQESVTEQDSKDSTYSLSSTLTLSKADYEKHKVYACEVTHQGLSSPVTKSFNRGEC	binds
Ly410 (bispecific antibody, human IgG1, kappa, Ly311 HC (IgG1 mutated Fc)-TM559 scFv VH-VL + Ly311 LC) heavy: EVQLVESGGGVVQPGRSLRLSCSASGFDFTTYWMSWVRQAPGKGLEWIGEIHPDSSTINYAPSLKDRFTISRDNAKNTLFLQMDSLRPEDTGVYFCASLYFGFPWFAYWGQGTPVTVSSASTKGPSVFPLAPSSKSTSGGTAALGCLVKDYFPEPVTVSWNSGALTSGVHTFPAVLQSSGLYSLSSVVTVPSSSLGTQTYICNVNHKPSNTKVDKKVEPKSCDKTHTCPPCPAPELLGPSVFLFPPKPKDTLMISRTPEVTCVVVDVSHEDPEVKFNWYVDGVEVHNAKTKPREEQYNSTYRVVSVLTVLHQDWLNGKEYKCKVSNKALPAPIEKTISKAKGQPREPQVYTLPPSREEMTKNQVSLTCLVKGFYPSDIAVEWESNGQPENNYKTTPPVLDSDGSFFLYSKLTVDKSRWQQGNVFSCSVMHEALHNHYTQKSLSLSPGGGGGSGGGGSGGGGSGGGGSEVQLVESGGGLVQPGGSLRLSCAASGFTFTNYGLHWVRQAPGKGLEWVSSISPSGGVTYYRDSVKGRFTISRDNSKNTLYLQMNSLRAEDTAVYYCAKPFLGWGGANWIAHWGQGTLVTVSSGGGGSGGGGSGGGGSGGGGSDIQMTQSPSSLSASVGDRVTITCLASEDISNDLAWYQQKPGKAPKLLIYFVDRLLDGVPSRFSGSGSGTDFTLTISSLQPEDFATYYCQQSYKYPPTFGQGTKLEIK light: DIQLTQSPSSLSASVGDRVTITCKASQDVGTSVAWYQQKPGKAPKLLIYWTSTRHTGVPSRFSGSGSGTDFTFTISSLQPEDIATYYCQQYSLYRSFGQGTKVEIKRTVAAPSVFIFPPSDEQLKSGTASVVCLLNNFYPREAKVQWKVDNALQSGNSQESVTEQDSKDSTYSLSSTLTLSKADYEKHKVYACEVTHQGLSSPVTKSFNRGEC	binds
Ly413 (bispecific antibody, human IgG1, kappa, Ly312 HC (IgG1 mutated Fc)-TM559 scFv VL-VH + Ly312 LC) heavy: EVQLVESGGGLVQPGGSLRLSCAASGFNIKDTYMHWVRQAPGKGLEWVARIDPANGNSKYADSVKGRFTISADTSKNTAYLQMNSLRAEDTAVYYCAPFGYYVSDYAMAYWGQGTLVTVSSASTKGPSVFPLAPSSKSTSGGTAALGCLVKDYFPEPVTVSWNSGALTSGVHTFPAVLQSSGLYSLSSVVTVPSSSLGTQTYICNVNHKPSNTKVDKKVEPKSCDKTHTCPPCPAPELLGPSVFLFPPKPKDTLMISRTPEVTCVVVDVSHEDPEVKFNWYVDGVEVHNAKTKPREEQYNSTYRVVSVLTVLHQDWLNGKEYKCKVSNKALPAPIEKTISKAKGQPREPQVYTLPPSREEMTKNQVSLTCLVKGFYPSDIAVEWESNGQPENNYKTTPPVLDSDGSFFLYSKLTVDKSRWQQGNVFSCSVMHEALHNHYTQKSLSLSPGGGGGSGGGGSGGGGSGGGGSDIQMTQSPSSLSASVGDRVTITCLASEDISNDLAWYQQKPGKAPKLLIYFVDRLLDGVPSRFSGSGSGTDFTLTISSLQPEDFATYYCQQSYKYPPTFGQGTKLEIKGGGGSGGGGSGGGGSGGGGSEVQLVESGGGLVQPGGSLRLSCAASGFTFTNYGLHWVRQAPGKGLEWVSSISPSGGVTYYRDSVKGRFTISRDNSKNTLYLQMNSLRAEDTAVYYCAKPFLGWGGANWIAHWGQGTLVTVSS light: DIQLTQSPSSLSASVGDRVTITCRAGESVDIFGVGFLHWYQQKPGKAPKLLIYRASNLESGVPSRFSGSGSRTDFTLTISSLQPEDFATYYCQQTNEDPYTFGQGTKVEIKRTVAAPSVFIFPPSDEQLKSGTASVVCLLNNFYPREAKVQWKVDNALQSGNSQESVTEQDSKDSTYSLSSTLTLSKADYEKHKVYACEVTHQGLSSPVTKSFNRGEC	binds
Ly414 (bispecific antibody, human IgG1, kappa, Ly312 HC (IgG1 mutated Fc)-TM559 scFv VH-VL + Ly312 LC) heavy: EVQLVESGGGLVQPGGSLRLSCAASGFNIKDTYMHWVRQAPGKGLEWVARIDPANGNSKYADSVKGRFTISADTSKNTAYLQMNSLRAEDTAVYYCAPFGYYVSDYAMAYWGQGTLVTVSSASTKGPSVFPLAPSSKSTSGGTAALGCLVKDYFPEPVTVSWNSGALTSGVHTFPAVLQSSGLYSLSSVVTVPSSSLGTQTYICNVNHKPSNTKVDKKVEPKSCDKTHTCPPCPAPELLGPSVFLFPPKPKDTLMISRTPEVTCVVVDVSHEDPEVKFNWYVDGVEVHNAKTKPREEQYNSTYRVVSVLTVLHQDWLNGKEYKCKVSNKALPAPIEKTISKAKGQPREPQVYTLPPSREEMTKNQVSLTCLVKGFYPSDIAVEWESNGQPENNYKTTPPVLDSDGSFFLYSKLTVDKSRWQQGNVFSCSVMHEALHNHYTQKSLSLSPGGGGGSGGGGSGGGGSGGGGSEVQLVESGGGLVQPGGSLRLSCAASGFTFTNYGLHWVRQAPGKGLEWVSSISPSGGVTYYRDSVKGRFTISRDNSKNTLYLQMNSLRAEDTAVYYCAKPFLGWGGANWIAHWGQGTLVTVSSGGGGSGGGGSGGGGSGGGGSDIQMTQSPSSLSASVGDRVTITCLASEDISNDLAWYQQKPGKAPKLLIYFVDRLLDGVPSRFSGSGSGTDFTLTISSLQPEDFATYYCQQSYKYPPTFGQGTKLEIK light: DIQLTQSPSSLSASVGDRVTITCRAGESVDIFGVGFLHWYQQKPGKAPKLLIYRASNLESGVPSRFSGSGSRTDFTLTISSLQPEDFATYYCQQTNEDPYTFGQGTKVEIKRTVAAPSVFIFPPSDEQLKSGTASVVCLLNNFYPREAKVQWKVDNALQSGNSQESVTEQDSKDSTYSLSSTLTLSKADYEKHKVYACEVTHQGLSSPVTKSFNRGEC	binds
